B1: Tyrosine-protein phosphatase non-receptor type 18 (Homo sapiens), Q99952-1 (parent)
chain: MSRSLDSARSFLERLEARGGREGAVLAGEFSDIQACSAAWKADGVCSTVAGSRPENVRKNRYKDVLPYDQTRVILSLLQEEGHSDYINGNFIRGVDGSLAYIATQGPLPHTLLDFWRLVWEFGVKVILMACREIENGRKRCERYWAQEQEPLQTGLFCITLIKEKWLNEDIMLRTLKVTFQKESRSVYQLQYMSWPDRGVPSSPDHMLAMVEEARRLQGSGPEPLCVHCSAGCGRTGVLCTVDYVRQLLLTQMIPPDFSLFDVVLKMRKQRPAAVQTEEQYRFLYHTVAQMFCSTLQNASPHYQNIKENCAPLYDDALFLRTPQALLAIPRPPGGVLRSISVPGSPGHAMADTYAVVQKRGAPAGAGSGTQTGTGTGTGARSAEEAPLYSKVTPRAQRPGAHAEDARGTLPGRVPADQSPAGSGAYEDVAGGAQTGGLGFNLRIGRPKGPRDPPAEWTRV

Variants of: B1
Details: with fbw1a_human BTRC

Question: For MSRSLDSARSFLERLEARGGREGAVLAGEFSDIQACSAAWKADGVCSTVAGSRPENVRKNRYKDVLPYDQTRVILSLLQEEGHSDYINGNFIRGVDGSLAYIATQGPLPHTLLDFWRLVWEFGVKVILMACREIENGRKRCERYWAQEQEPLQTGLFCITLIKEKWLNEDIMLRTLKVTFQKESRSVYQLQYMSWPDRGVPSSPDHMLAMVEEARRLQGSGPEPLCVHCSAGCGRTGVLCTVDYVRQLLLTQMIPPDFSLFDVVLKMRKQRPAAVQTEEQYRFLYHTVAQMFCSTLQNASPHYQNIKENCAPLYDDALFLRTPQALLAIPRPPGGVLRSISVPGSPGHAMADTYAVVQKRGAPAGAGSGTQTGTGTGTGARSAEEAPLYSKVTPRAQRPGAHAEDARGTLPGRVPADQSPAGAGAYEDVAGGAQTGGLGFNLRIGRPKGPRDPPAEWTRV [S423A], which “effect of a mutation on the interaction” value is on record?
Answer: disrupting interaction strength

Question: How did the “effect of a mutation on the interaction” value turn out when MSRSLDSARSFLERLEARGGREGAVLAGEFSDIQACSAAWKADGVCSTVAGSRPENVRKNRYKDVLPYDQTRVILSLLQEEGHSDYINGNFIRGVDGSLAYIATQGPLPHTLLDFWRLVWEFGVKVILMACREIENGRKRCERYWAQEQEPLQTGLFCITLIKEKWLNEDIMLRTLKVTFQKESRSVYQLQYMSWPDRGVPSSPDHMLAMVEEARRLQGSGPEPLCVHCSAGCGRTGVLCTVDYVRQLLLTQMIPPDFSLFDVVLKMRKQRPAAVQTEEQYRFLYHTVAQMFCSTLQNASPHYQNIKENCAPLYDDALFLRTPQALLAIPRPPGGVLRSISVPGSPGHAMADTYAVVQKRGAPAGAGSGTQTGTGTGTGARSAEEAPLYSKVTPRAQRPGAHAEDARGTLPGRVPADQAPAGSGAYEDVAGGAQTGGLGFNLRIGRPKGPRDPPAEWTRV [S419A] was run?
Answer: decreasing interaction strength

Source: IntAct's records for PubMed 25081058
